Assay results from publication PMC3809846 (International journal of cancer. Journal international du …, 2012).
No end group written: not given here.

Key:
[1] = target: podoplanin expressed on brain tumor cells (Homo sapiens, UniProt Q86YL7); experiment: flow cytometry on cells
[2] = target: T1, biotinylated podoplanin peptide (hpp38-51) (Homo sapiens, UniProt Q86YL7, also: biotin, position not given here); experiment: SPR
T1 chain: EGGVAMPGAEDDVV

Sequence of podoplanin expressed on brain tumor cells (Q86YL7 23-162): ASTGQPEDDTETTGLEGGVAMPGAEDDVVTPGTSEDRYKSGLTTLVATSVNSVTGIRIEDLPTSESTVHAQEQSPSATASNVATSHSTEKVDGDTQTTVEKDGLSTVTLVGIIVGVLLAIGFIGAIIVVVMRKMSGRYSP

| Binder | binding result [1] | Ka [2] [M⁻¹] |
| --- | --- | --- |
| NZ-1 monoclonal antibody (antibody, V domains shown) VH: EVQLVESGGGLVQPGRSLKLSCAASGFTFSNYGMAWVRQTPTKGLEWIASISAGGDKTYYGDSVKGRFSISRDNAKTTHYLQMDSLRSEDTATYYCAKTSRVYFDYWGQGVMVTVSS VL: QFVLTQPNSVSTNLGSTVKLSCKRSTGNIGSNYVNWYQQHEGRSPTTMIYRDDKRPDGVPDRFSGSIDRSSNSALLTINNVQTEDEADYFCHSYSSGIVFGGGTKLTVL | binds |  |
| NZ-1-(scdsFv) (scFv, V domains shown) VH: EVQLVESGGGLVQPGRSLKLSCAASGFTFSNYGMAWVRQTPTKCLEWIASISAGGDKTYYGDSVKGRFSISRDNAKTTHYLQMDSLRSEDTATYYCAKTSRVYFDYWGQGVMVTVSS VL: QFVLTQPNSVSTNLGSTVKLSCKRSTGNIGSNYVNWYQQHEGRSPTTMIYRDDKRPDGVPDRFSGSIDRSSNSALLTINNVQTEDEADYFCHSYSSGIVFGGCTKLTVL |  | 4.8e+07 |
